Results reported in patent publication US20180071385A1 (LEIDOS, published 2018).

Target: human PD-1 on Jurkat cells (human, UniProt Q15116 25-288)
Test: cell-based or functional assay

human PD-1 on Jurkat cells, sequence (Q15116 25-288): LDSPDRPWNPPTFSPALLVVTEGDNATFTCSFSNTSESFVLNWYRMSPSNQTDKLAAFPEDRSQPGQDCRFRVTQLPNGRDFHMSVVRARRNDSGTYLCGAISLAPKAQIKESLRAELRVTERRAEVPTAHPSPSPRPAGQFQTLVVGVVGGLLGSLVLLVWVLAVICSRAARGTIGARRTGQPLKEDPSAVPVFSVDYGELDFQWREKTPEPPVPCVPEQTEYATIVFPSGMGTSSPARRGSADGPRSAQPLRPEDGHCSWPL

EC50 (read off the curve), Fold Inhibition of RLU: ~8 µM
Binder: QTRTVPMPKIHHPPWQNVVP [peptide QP20]
